Data as given in paper PMC1277818, “Substrate specificity analysis of protein kinase complex Dbf2-Mob1 by peptide library and proteome array screening” (BMC Biochemistry, 2005).

T1: FHHDbf2-H6Mob1TM9 (Saccharomyces cerevisiae, UniProt P22204+P40484)
T1 construct: made in house; host or cells: Hi5 insect cells (baculovirus)
T1 sequence (P22204 1-572): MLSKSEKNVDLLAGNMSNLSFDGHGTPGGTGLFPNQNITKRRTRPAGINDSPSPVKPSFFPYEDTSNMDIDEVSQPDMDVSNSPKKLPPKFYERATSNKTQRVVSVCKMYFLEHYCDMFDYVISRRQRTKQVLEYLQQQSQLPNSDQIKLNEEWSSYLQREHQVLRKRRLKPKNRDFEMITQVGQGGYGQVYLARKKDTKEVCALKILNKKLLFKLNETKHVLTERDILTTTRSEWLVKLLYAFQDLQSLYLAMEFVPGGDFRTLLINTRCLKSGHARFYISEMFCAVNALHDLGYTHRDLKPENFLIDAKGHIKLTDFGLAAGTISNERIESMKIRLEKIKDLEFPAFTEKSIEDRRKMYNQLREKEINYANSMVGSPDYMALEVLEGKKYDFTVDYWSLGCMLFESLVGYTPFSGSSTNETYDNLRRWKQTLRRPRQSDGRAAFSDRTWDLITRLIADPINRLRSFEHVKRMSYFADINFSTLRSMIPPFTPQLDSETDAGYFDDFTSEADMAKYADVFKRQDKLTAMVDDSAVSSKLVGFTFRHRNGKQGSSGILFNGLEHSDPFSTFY
T1 sequence (P40484 1-314 partner): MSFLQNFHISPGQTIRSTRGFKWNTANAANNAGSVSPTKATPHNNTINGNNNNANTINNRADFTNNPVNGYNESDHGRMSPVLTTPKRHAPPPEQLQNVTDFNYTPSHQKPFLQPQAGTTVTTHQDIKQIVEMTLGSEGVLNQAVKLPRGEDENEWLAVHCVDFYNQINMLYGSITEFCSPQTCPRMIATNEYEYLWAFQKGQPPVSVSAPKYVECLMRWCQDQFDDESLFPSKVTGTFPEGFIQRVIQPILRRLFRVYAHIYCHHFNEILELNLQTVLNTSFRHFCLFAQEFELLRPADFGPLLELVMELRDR

B1: YDL002C: GST fusion yeast protein on proteome chip (protein, UniProt Q03435 2-203, looked up)
Non-histone protein 10: SVEEKKRRLEELKDQNVVLGLAIQRSRLSVKRLKLEYGVLLERLESRIELDPELNCEDPLPTLASFKQELLTKPFRKSKTKRHKVKERDPNMPKRPTNAYLLYCEMNKERIRQNGSLDVTRDLAEGWKNLNEQDRKPYYKLYSEDRERYQMEMEIYNKKISNIDADDDKEENEQKIKNNEEGSSTKVADSKGGEDGSLVSSN
modifications: GST fusion
notes: GST fusion yeast protein on proteome chip
B2: YBL106C: GST fusion yeast protein on proteome chip (protein, UniProt P38163 1-1010, looked up)
Lethal(2) giant larvae …: MFKKSRHLKNVSNAIKSARVHDVSNGINSKFFDTKKICTYGINGRITVTTFDYTQSLLAVATTAGEIHVYGQKQIEVVFTLKNRPQIKHMRFIKGIYLIAVDEKSNIIVLSVHSKQILTTVFCPNSITCIETDPSLDWMLIGLESGSILIYDVDRNQMSKLKIENFQKSVFLPKERLSPVISIQWNPRDIGTILISYEHITVIYSFIDYKVKQHFFYQLEPYAPGGDLSTNIEKKRTPKVIQSLYHPNSLHILTVHEDNSLVFWDVNSGKLIHARSIFETHVNFPNPALKDCSFTETPAIFKVSWLCQRNPEYTSLLIATKATENPCLPQEITMIDLGGTPMYSVTSFDAMSKYYAKPVQQKLFSLIGKAPLINFLPLPKASPYFGGCHDTNLILLLLEDGELETLIYPAGSFSSKASIFPRSLAWVRPTVTTCIAQSVQKNLWLGMMTIAQSESFLKGGIPATRNIRRHETRSALLTGHSNGSVRIWDASHSEVTDNAVFEVNTAKVLNRATNLAIKNISFASETLELAVSSEVGDVILFKFETNKFYGQLPKSDALQLKFSRFSLDDSKTILVDVSDRGPTNVKQGFIPSTVIHAKKGAVSAIMNSNIGFVAVGFIEGTLIILDRRGPAIIFNENIRVISKAGSSYVSTVHFCVMEYGDDGFSSILMLCGTDIGELMTFKILPATNGRFEVKFTDATKTNNQGKILGINSFAKDTGYSCSATISKMQGLSKGIAIPGFVTISGANDIRLVSPGKSKDTHALFKYPIATSGLSFIPIIDGKGERKLSTIMIVLLINGDIKVLTVPELKEVKNLRCPVPLSAQYVENSSILENGDIVIRTGKFQASLISVLNESATGTNHTADISQHTPIDTLYNPDLKIGYRPQVNSLQWARGTIYCTPYQLDELLGGIERPESKYEESAIARGCISSSSSNAARKLPPGTEDHRYARPVRSSGRSNGYGVLKSVSRAIETRLDTVETTINDYATTMGQTMNDAMEETGRDMMKSAVGF
modifications: GST tag
notes: as for B1
B3: YDL070W: GST fusion yeast protein on proteome chip (protein, UniProt Q07442 1-638, looked up)
Bromodomain-containing factor …: MSRTNMDTRHAHSALLAAPQSATANSRSSNSSSESSSNKNNINVGVGDDSGNVSAVSIDDGPHFRDIFHYGHEENYKLASSGITNLNSSSHAHQTLSPISISNASTPESFPEHPLGLERETEPALEAEMEAEELPPHQSKYLLSSIKATKRLKDARPFLKPVDPIALNIPHYFNYVQTPMDLSLIETKLQGNVYHSVEQVTSDFKTMVDNCLNFNGPESSISSMAKRIQKYFEKKLSAMPPRVLPASALKKTSRNRKKNEDMDSPLVIRRSVSTTNDNIGESGNREGVSGGRPKRTIHPPKSKDLFDIYENSKPKSKTLQKKFRTCLKILKVLMSKKNSDINFPFLQPVDPIALNLPNYFDVVKNPMDLGTISNNLMNWKYKTIDQFVDDLNLVFYNCFQFNPEGNEVHSMGKKLKELFNFHWLENQDILNEIETDSDLEEDNYSSSYSSDDEYDDEDINENDITNPAIQYLEQKLKKMEVELQQLKRQELSKLSKERKRKHLGKTLLRRKAMKHSVDDLKKSITDKINELSDLEMNGMIRIIKNSLPADEILTSNEDEIEIDLDILDEATIARIYERYFEKKNNNNSKRKLSGNYSTAPTNKKKKTLKFLEKDEIINNNNYSDSEEDSSDSSDSDSD
modifications: GST fusion
notes: as for B1
B4: YMR072W: GST fusion yeast protein on proteome chip (protein, UniProt Q02486 27-183, looked up)
ARS-binding factor 2, …: KASKRTQLRNELIKQGPKRPTSAYFLYLQDHRSQFVKENPTLRPAEISKIAGEKWQNLEADIKEKYISERKKLYSEYQKAKKEFDEKLPPKKPAGPFIKYANEVRSQVFAQHPDKSQLDLMKIIGDKWQSLDQSIKDKYIQEYKKAIQEYNARYPLN
modifications: GST tag
notes: as for B1
B5: YCR105W: GST fusion yeast protein on proteome chip (protein, UniProt P25377 1-361, looked up)
NADP-dependent alcohol …: MLYPEKFQGIGISNAKDWKHPKLVSFDPKPFGDHDVDVEIEACGICGSDFHIAVGNWGPVPENQILGHEIIGRVVKVGSKCHTGVKIGDRVGVGAQALACFECERCKSDNEQYCTNDHVLTMWTPYKDGYISQGGFASHVRLHEHFAIQIPENIPSPLAAPLLCGGITVFSPLLRNGCGPGKRVGIVGIGGIGHMGILLAKAMGAEVYAFSRGHSKREDSMKLGADHYIAMLEDKGWTEQYSNALDLLVVCSSSLSKVNFDSIVKIMKIGGSIVSIAAPEVNEKLVLKPLGLMGVSISSSAIGSRKEIEQLLKLVSEKNVKIWVEKLPISEEGVSHAFTRMESGDVKYRFTLVDYDKKFHK
modifications: GST fusion
notes: as for B1
B6: YKL140W: GST fusion yeast protein on proteome chip (protein, UniProt P34163 1-548, looked up)
Sterol esterase TGL1: MYFPFLGRLSITDYIIVVLVYIESIISSVLKLIPQPMINLFEWLINFSTSSDDNTIEEKLRSAPTIHEMCAIFDISVEDHLVRTEDNYILTLHRIPPISKNRFNNKVVYLHHGLLMCSDVWCCNIERHKNLPFVLHDLGYDVWMGNNRGNKYSTAHLNKPPKSNKFWDFSIDEFAFFDIPNSIEFILDITKVDKVICIGFSQGSAQMFAAFSLSEKLNRKVSHFIAIAPAMTPKGLHNRIVDTLAKSSPGFMYLFFGRKIVLPSAVIWQRTLHPTLFNLCIDIANKILFNWKSFNILPRQKIASYAKLYSTTSVKSIVHWFQILRSQKFQMFEESDNMLNSLTRPYQIANFPTRTNIKIPILLIYGGIDSLVDIDVMKKNLPFNSVFDVKVDNYEHLDLIWGKDADTLVIAKVLRFIEFFNPGNVSVKTNQLLPSASLVEELPSTTWKTTHPTHGLSYRTHSADRSPLSVQADEADEVHNADNSRFLRRVFSTSAIDEDNENEHQDDTEDQIHKEQQRRLSAYLESSKDLRQLDANSSTTALDALNKE
modifications: GST tag
notes: as for B1
B7: YNL125C: GST fusion yeast protein on proteome chip (protein, UniProt P53918 1-673, looked up)
Uncharacterized transporter …: MSTHSNDYFSASSGMVSETSSEVSSINSSQPVSFSKASIAAPVPCSDLHSTKSNDASRKLSISRTLTNRLNDIKKAVDDDNLQTEENSADVNKILESRFDVADAIRLQHNESVQSKLNIPVTHTTTAGASLSAPSSSAFSASSIQNDTTEHKASMDSKLMRNRLYPASTKHSGKDLEAQGITEFEPDEPTVKKVFTNKSTGQLELPPDGGYGWVVTFCVFLTMFSTWGCNASFGVDLAYYLNHDTYPGASKYDYALIAGLTVFLGQLLSPLVMALMRIIGLRTTMLFGDAVMLAAYLLASFTTKLWQLYVTQGFMVGCSISLIFVPATTVLPGWFLKKRAVAMGVSLLGTGAGGVVYGLATNKMLSDFGNTRWCLRIIGISCSISVLVAIALLKERNPTPAIGLKSPRAMFEQLKAMFSLKVITKPFVVLIALWFMFALFAYNMMVFTLSSYAISKGLSSHDASTLTAILNGSQSIGRPLMGLAGDKFGRANVTIVLTTLLTIYMFAFWIPAHTFVQLIFFSILVGSCVGVANVMNTVLIADMVKPEEFLPAWAFVNYCGAPFLLVCEVIAQALTVEKDKSNPYLHAQIFCGCCFIAALILISILREYSIRMKLTERQAMTNEKLKEWKASEYDTDSADEDWGKLKERKTKYDLLLGPGIKKYFLRMVYPMKV
modifications: GST fusion
notes: as for B1

What follows are molecules tested against T1, FHHDbf2-H6Mob1TM9 (assay: Yeast proteome chip assay). Conditions: Table 3; GST fusion proteins on proteome chip, [γ-33P]ATP, chips in duplicate, computer analysis.
Assay type: biochemical
Procedure: The relatively low sequence complexity of the Dbf2 phosphorylation motif diminished the power of using genome-wide bioinformatics screens to identify putative substrates. Accordingly, we carried out a proteome array screen to identify putative yeast substrates. […] After taking into account the proteins phosphorylated in the negative controls, 67 proteins were determined to be putative Dbf2-Mob1 substrates (Table 3).
Yeast proteome microarrays were prepared as previously described. Overexpressed GST-tagged yeast proteins were purified from ~4,400 yeast strains and spotted on slides. To determine the optimal amount of kinase to use for probing proteome chips, we performed trial assays as described (J. Ptacek et al., submitted). […] The full proteome array was probed with 4 μl ^FHHDbf2-^H6Mob1^TM9 in 200 μl of DKB supplemented with [γ-^33P]ATP. As a control, ^FHHDbf2(N305A)-^H6Mob1^TM9 was used to probe the proteome array. […] To control for autophosphorylated proteins, the proteome array was probed with 200 μl of DKB supplemented with [γ-^33P]ATP. Proteome chips were assayed in duplicate in each case. Data analysis was performed as described (J. Ptacek et al., submitted). Briefly, signals were analyzed by a computer algorithm designed to normalize background and identify signals as positive if 3 of 4 spots (each protein is spotted twice on each slide and each kinase or control was tested on 2 slides) were 2 standard deviations above background and the fourth spot was 1.5 standard deviations above background.

Row | Molecule | Slide Signal (after normalization)
1 | B1 | 0.8102
2 | B2 | 0.5988
3 | B3 | 0.6162
4 | B4 | 0.7585
5 | B5 | 0.6146
6 | B6 | 0.6321
7 | B7 | 0.5694
